Laboratory results published in PMC9190012, “Heparin activation of protein Z-dependent protease inhibitor (ZPI) allosterically blocks protein Z activation through an extended heparin-binding site” (The Journal of Biological Chemistry, 2022).

B1: D293A: ZPI mutant in the PZ-binding site hot spot residue (protein, UniProt Q9UK55 22-444, looked up, variant D293A)
Protein Z-dependent protease …: LAPSPQSPETPAPQNQTSRVVQAPKEEEEDEQEASEEKASEEEKAWLMASRQQLAKETSNFGFSLLRKISMRHDGNMVFSPFGMSLAMTGLMLGATGPTETQIKRGLHLQALKPTKPGLLPSLFKGLRETLSRNLELGLTQGSFAFIHKDFDVKETFFNLSKRYFDTECVPMNFRNASQAKRLMNHYINKETRGKIPKLFDEINPETKLILVDYILFKGKWLTPFDPVFTEVDTFHLDKYKTIKVPMMYGAGKFASTFDKNFRCHVLKLPYQGNATMLVVLMEKMGDHLALEAYLTTDLVETWLRNMKTRNMEVFFPKFKLDQKYEMHELLRQMGIRRIFSPFADLSELSATGRNLQVSRVLQRTVIEVDERGTEAVAGILSEITAYSMPPVIKVDRPFHFMIYEETSGMLLFLGRVVNPTLL
B2: K260A/R263A: ZPI helix H site double mutant (protein, UniProt Q9UK55 22-444, looked up, variant K260A R263A)
Protein Z-dependent protease …: LAPSPQSPETPAPQNQTSRVVQAPKEEEEDEQEASEEKASEEEKAWLMASRQQLAKETSNFGFSLLRKISMRHDGNMVFSPFGMSLAMTGLMLGATGPTETQIKRGLHLQALKPTKPGLLPSLFKGLRETLSRNLELGLTQGSFAFIHKDFDVKETFFNLSKRYFDTECVPMNFRNASQAKRLMNHYINKETRGKIPKLFDEINPETKLILVDYILFKGKWLTPFDPVFTEVDTFHLDKYKTIKVPMMYGAGKFASTFDANFACHVLKLPYQGNATMLVVLMEKMGDHLALEDYLTTDLVETWLRNMKTRNMEVFFPKFKLDQKYEMHELLRQMGIRRIFSPFADLSELSATGRNLQVSRVLQRTVIEVDERGTEAVAGILSEITAYSMPPVIKVDRPFHFMIYEETSGMLLFLGRVVNPTLL
B3: K260A/R263A/K308A/R310A: ZPI helix H site quadruple mutant (protein, UniProt Q9UK55 22-444, looked up, variant K260A R263A K308A R310A)
Protein Z-dependent protease …: LAPSPQSPETPAPQNQTSRVVQAPKEEEEDEQEASEEKASEEEKAWLMASRQQLAKETSNFGFSLLRKISMRHDGNMVFSPFGMSLAMTGLMLGATGPTETQIKRGLHLQALKPTKPGLLPSLFKGLRETLSRNLELGLTQGSFAFIHKDFDVKETFFNLSKRYFDTECVPMNFRNASQAKRLMNHYINKETRGKIPKLFDEINPETKLILVDYILFKGKWLTPFDPVFTEVDTFHLDKYKTIKVPMMYGAGKFASTFDANFACHVLKLPYQGNATMLVVLMEKMGDHLALEDYLTTDLVETWLRNMATANMEVFFPKFKLDQKYEMHELLRQMGIRRIFSPFADLSELSATGRNLQVSRVLQRTVIEVDERGTEAVAGILSEITAYSMPPVIKVDRPFHFMIYEETSGMLLFLGRVVNPTLL
B4: WT: recombinant wild-type protein Z-dependent protease inhibitor (serpin A10) expressed in Escherichia coli (protein, UniProt Q9UK55 22-444, looked up)
Protein Z-dependent protease …: LAPSPQSPETPAPQNQTSRVVQAPKEEEEDEQEASEEKASEEEKAWLMASRQQLAKETSNFGFSLLRKISMRHDGNMVFSPFGMSLAMTGLMLGATGPTETQIKRGLHLQALKPTKPGLLPSLFKGLRETLSRNLELGLTQGSFAFIHKDFDVKETFFNLSKRYFDTECVPMNFRNASQAKRLMNHYINKETRGKIPKLFDEINPETKLILVDYILFKGKWLTPFDPVFTEVDTFHLDKYKTIKVPMMYGAGKFASTFDKNFRCHVLKLPYQGNATMLVVLMEKMGDHLALEDYLTTDLVETWLRNMKTRNMEVFFPKFKLDQKYEMHELLRQMGIRRIFSPFADLSELSATGRNLQVSRVLQRTVIEVDERGTEAVAGILSEITAYSMPPVIKVDRPFHFMIYEETSGMLLFLGRVVNPTLL

Assays:
Assay type in all cases: biochemical
FXa [1] = target: T1, FXa (Homo sapiens, UniProt P00742); experiment: Unaccelerated ZPI–FXa reactions: kinetics and stoichiometry of inhibition; conditions: for ka,app: absence of PZ, 2.5 mM CaCl2, pH 7.4, 25 °C
T1 construct: purchased Enzyme Research Laboratories
T1 sequence (P00742 235-488 limits assumed): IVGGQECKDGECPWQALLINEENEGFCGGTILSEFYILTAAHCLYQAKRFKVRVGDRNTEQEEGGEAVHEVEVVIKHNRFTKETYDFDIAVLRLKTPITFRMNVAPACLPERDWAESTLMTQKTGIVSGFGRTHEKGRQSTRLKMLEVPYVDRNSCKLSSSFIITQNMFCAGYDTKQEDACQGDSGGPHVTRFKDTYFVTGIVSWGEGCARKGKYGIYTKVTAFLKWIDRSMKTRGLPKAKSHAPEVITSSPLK
T1 sequence (P00742 41-179 limits assumed): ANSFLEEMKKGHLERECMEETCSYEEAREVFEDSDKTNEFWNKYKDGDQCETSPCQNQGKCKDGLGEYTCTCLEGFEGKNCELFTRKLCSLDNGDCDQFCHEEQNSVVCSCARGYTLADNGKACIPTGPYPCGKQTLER
Protocol: (§1) Apparent second-order rate constants for unaccelerated and H50-accelerated ZPI–FXa reactions were measured in the absence and presence of the optimal H50 concentration under pseudo–first-order conditions by analyzing full ZPI–FXa reaction progress curves over the ZPI concentration range of 10 to 900 nM with ∼0.5 nM FXa. Full reaction progress curves were also measured for ZPI–FXa reactions in the presence of PZ equimolar with ZPI, 25 μM lipid, and 5 mM CaCl2, as a function of the ZPI concentration in the range of 10 to 40 nM. Identical reaction mixtures were quenched at varying reaction times with substrate, and the time course of protease inactivation was measured from the decrease in initial rates of substrate hydrolysis. The first-order rate of decrease in protease activity with time was computer fit by a single exponential decay function with a nonzero end point and kobs obtained from the fitted exponential decay constant. Apparent second-order association rate constants (ka,app) were obtained from the slopes of linear plots of kobs versus the ZPI concentration according to the equation, kobs=kd+ka,app × [ZPI]0
(§2) In which kd represents the rate constant for ZPI–FXa complex dissociation and [ZPI]o is the total ZPI concentration. kd was fixed at the experimentally determined value of 10^−4 s^−1 for WT and ZPI mutants as described ([18]).
(§3) Fixed concentrations of FXa (50–100 nM FXa) were reacted with increasing concentrations of ZPI, ranging from a approximately threefold to sevenfold molar excess, in the absence of cofactors or in the presence of either 1 μM H50 or PZ equimolar with ZPI, 25 μM lipid, and 5 mM CaCl2, in kinetics buffer at 25 °C in reaction volumes of 50 μl. After allowing sufficient time to reach a reaction end point, based on measured second-order associate rate constants (∼5–30 min), remaining proteolytic activity was measured by reacting an aliquot (5–20 μl) of the reaction mixtures with 1 ml of 100 μM Spectrozyme fXa (American Diagnostica) containing 50 μg/ml Polybrene and 5 mM EDTA and monitoring the rate of absorbance change at 405 nm. The apparent SI was determined from the fitted abscissa intercept of a linear plot of residual protease activity against the molar ratio of inhibitor to protease ([18]). Because the ZPI–PZ complex dissociates to a small extent over the reaction time, apparent SIs depend on the time of incubation. To correct for such complex dissociation, apparent SIs were multiplied by the factor, exp (−kd × t), where kd is the measured complex dissociation rate constant of 10^−4 s^−1 and t the fixed reaction time. Simulations verified the validity of this correction for small extents of dissociation. Reported SIs are average values of at least two independent measurements at different reaction times.

FXa [2] = target: T1, FXa; experiment: PZ-accelerated ZPI–FXa reactions: kinetics and stoichiometry of inhibition; conditions: for PZ enhancement: ratio of PZ-accelerated to unaccelerated ka,app × SI; for SI / ka,app × SI / ka,app × SI relative to WT: PZ-accelerated; for ka,app: equimolar PZ, 25 μM phospholipid, 5 mM CaCl2, pH 7.4, 25 °C
Protocol: as §1, §2, §3

FXa [3] = target: T1, FXa; experiment: H50 heparin-accelerated ZPI–FXa reactions: kinetics and stoichiometry of inhibition; conditions: for SI / ka,app × SI / ka,app × SI relative to WT: 1 μM H50; for ka,app: 1 μM H50, 2.5 mM CaCl2, pH 7.4, 25 °C; for H50 rate enhancement: ratio of heparin-accelerated to unaccelerated ka,app × SI
Protocol: Heparin accelerating effects on the kinetics of ZPI–FXa reactions were evaluated as a function of heparin concentration under pseudo–first-order conditions (i.e., with a large molar excess of inhibitor over protease) by incubating reaction mixtures of 100 μl containing 70 nM ZPI and ∼0.5 nM FXa in the absence or presence of varying levels of H50 ranging from 10^−9 to 10^−4 M in 20 mM Tris buffer (pH 7.4), 0.1 M NaCl, 0.1% PEG 8000, 0.1 mg/ml BSA, and 2.5 mM CaCl2 at 25 °C for reaction times of 2 to 5 min. Reactions were quenched by adding 1 ml of 50 μM Pefafluor FXa substrate (Centerchem, Inc) containing 50 μg/ml polybrene and 5 mM EDTA. The initial linear rate of substrate hydrolysis was monitored at an excitation wavelength of 380 nm and an emission wavelength of 440 nm. The observed pseudo–first-order rate constant for reactions (kobs) was calculated from the equation, kobs=In([vo-v∞]/[vt-v∞])/t
where vt and v∞ are the initial velocities of protease hydrolysis of the substrate after reaction with ZPI for the fixed reaction time and after reaching the reaction end point, respectively, vo is the velocity measured in control reactions without ZPI, and t is the fixed reaction time. The dependence of kobs on heparin concentration was computer fit by nonlinear least squares analysis by the ternary complex bridging model equation ([10]).
as §1, §2
as §3, with “Simulations verified the validity of this correction for small extents of dissociation. Reported SIs are average values of at least two independent measurements at different reaction times.” left out

Molecule	SI (FXa [1])	ka,app × SI (FXa [1])	ka,app × SI relative to WT (FXa [1])	ka,app (FXa [1])	PZ enhancement (FXa [2])	SI (FXa [3])	ka,app × SI (FXa [3])	ka,app × SI relative to WT (FXa [3])	ka,app (FXa [3])	SI (FXa [2])	ka,app × SI (FXa [2])	ka,app × SI relative to WT (FXa [2])	ka,app (FXa [2])	H50 rate enhancement (FXa [3])
B1	2.6 ± 0.1 moles ZPI/mole FXa	1.1 ± 0.1 × 10^4 M^−1 s^−1	(0.69)	4.1 ± 0.2 × 10^3 M^−1 s^−1	greatly abrogated the acceleration	1.7 ± 0.1 moles ZPI/mole FXa	8.5 ± 0.6 × 10^5 M^−1 s^−1	(0.71)	5.0 ± 0.2 × 10^5 M^−1 s^−1					
B2	2.4 ± 0.5 moles ZPI/mole FXa	1.3 ± 0.4 × 10^4 M^−1 s^−1	(0.81)	5.4 ± 0.3 × 10^3 M^−1 s^−1	1153	2.5 ± 0.4 moles ZPI/mole FXa	2.9 ± 0.8 × 10^5 M^−1 s^−1	(0.24)	1.2 ± 0.1 × 10^5 M^−1 s^−1	2.6 ± 0.3 moles ZPI/mole FXa	1.5 ± 0.2 × 10^7 M^−1 s^−1	(0.34)	5.6 ± 0.2 × 10^6 M^−1 s^−1	~22 fold
B3	4.0 ± 0.8 moles ZPI/mole FXa	4.5 ± 1.8 × 10^3 M^−1 s^−1	(0.28)	1.1 ± 0.2 × 10^3 M^−1 s^−1	6000	4.1 ± 0.6 moles ZPI/mole FXa	7.6 ± 1.3 × 10^4 M^−1 s^−1	(0.06)	1.8 ± 0.1 × 10^4 M^−1 s^−1	6.6 ± 0.4 moles ZPI/mole FXa	2.7 ± 0.4 × 10^7 M^−1 s^−1	(0.61)	4.1 ± 0.3 × 10^6 M^−1 s^−1	~17 fold
B4	2.8 ± 0.4 moles ZPI/mole FXa	1.6 ± 0.3 × 10^4 M^−1 s^−1	(1)	5.6 ± 0.3 × 10^3 M^−1 s^−1	2750	2.4 ± 0.1 moles ZPI/mole FXa	1.2 ± 0.2 × 10^6 M^−1 s^−1	(1)	5.1 ± 0.4 × 10^5 M^−1 s^−1	4.0 ± 0.3 moles ZPI/mole FXa	4.4 ± 0.3 × 10^7 M^−1 s^−1	(1.0)	10.9 ± 0.1 × 10^6 M^−1 s^−1	~75 fold
